Results taken from US20220305006A1, “COMPOSITIONS AND METHODS FOR THE TREATMENT OF NEUROLOGICAL DISEASES AND DISORDERS” (The Regents of the University of California, priority 2019, published 2022).

Columns and labels:
Assay in all cases: cell-based or functional assay
[1] = biological target: BACE1 expressed from a transfected plasmid in 293T cells (NRG1 and PSGL1 assays)
[2] = biological target: Recombinant Human Cathepsin D (human) (UniProt P07339)
[3] = biological target: BACE in CHO-7W cells (Chinese hamster ovary cells stably transfected with wildtype human APP)

Chain of Recombinant Human Cathepsin D (human) (P07339 65-412): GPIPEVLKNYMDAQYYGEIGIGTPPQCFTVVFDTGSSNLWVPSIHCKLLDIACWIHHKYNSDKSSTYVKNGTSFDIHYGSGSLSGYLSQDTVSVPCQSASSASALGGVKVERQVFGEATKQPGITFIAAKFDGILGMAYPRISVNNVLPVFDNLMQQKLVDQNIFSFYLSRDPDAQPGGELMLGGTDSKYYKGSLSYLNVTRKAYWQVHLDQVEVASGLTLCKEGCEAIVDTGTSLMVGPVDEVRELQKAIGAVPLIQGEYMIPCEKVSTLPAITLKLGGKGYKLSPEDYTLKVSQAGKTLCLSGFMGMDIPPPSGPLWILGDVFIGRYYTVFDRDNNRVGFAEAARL

Row | Substance | NRG1 cleavage by BACE in co-transfected 293T cells (secreted alkaline phosphatase), EC50 [1] [µM] | PSGL1 cleavage by BACE in co-transfected 293T cells (secreted alkaline phosphatase), EC50 [1] [µM] | Cat D activity (fluorogenic substrate), IC50 [2] [µM] | decrease of BACE cleavage product sAPPβ from CHO-7W cells, EC50 [3] [µM]
1 | BACE inhibitor 1 (statine BACE inhibitor 1) (peptide) | > 10 | > 10 | < 0.01 | –
2 | recombinant sAPPα, human, amino acids 19-613 (from UniProt P05067 19-613) | > 10 | > 10 | – | < 5
